Results from US20130064833A1.

Biological target: hepatocyte growth factor receptor (HGFR) (UniProt P08581)
Assay: cell-based or functional assay

Chain of UniProt P08581 (P08581 25-1390 limits assumed): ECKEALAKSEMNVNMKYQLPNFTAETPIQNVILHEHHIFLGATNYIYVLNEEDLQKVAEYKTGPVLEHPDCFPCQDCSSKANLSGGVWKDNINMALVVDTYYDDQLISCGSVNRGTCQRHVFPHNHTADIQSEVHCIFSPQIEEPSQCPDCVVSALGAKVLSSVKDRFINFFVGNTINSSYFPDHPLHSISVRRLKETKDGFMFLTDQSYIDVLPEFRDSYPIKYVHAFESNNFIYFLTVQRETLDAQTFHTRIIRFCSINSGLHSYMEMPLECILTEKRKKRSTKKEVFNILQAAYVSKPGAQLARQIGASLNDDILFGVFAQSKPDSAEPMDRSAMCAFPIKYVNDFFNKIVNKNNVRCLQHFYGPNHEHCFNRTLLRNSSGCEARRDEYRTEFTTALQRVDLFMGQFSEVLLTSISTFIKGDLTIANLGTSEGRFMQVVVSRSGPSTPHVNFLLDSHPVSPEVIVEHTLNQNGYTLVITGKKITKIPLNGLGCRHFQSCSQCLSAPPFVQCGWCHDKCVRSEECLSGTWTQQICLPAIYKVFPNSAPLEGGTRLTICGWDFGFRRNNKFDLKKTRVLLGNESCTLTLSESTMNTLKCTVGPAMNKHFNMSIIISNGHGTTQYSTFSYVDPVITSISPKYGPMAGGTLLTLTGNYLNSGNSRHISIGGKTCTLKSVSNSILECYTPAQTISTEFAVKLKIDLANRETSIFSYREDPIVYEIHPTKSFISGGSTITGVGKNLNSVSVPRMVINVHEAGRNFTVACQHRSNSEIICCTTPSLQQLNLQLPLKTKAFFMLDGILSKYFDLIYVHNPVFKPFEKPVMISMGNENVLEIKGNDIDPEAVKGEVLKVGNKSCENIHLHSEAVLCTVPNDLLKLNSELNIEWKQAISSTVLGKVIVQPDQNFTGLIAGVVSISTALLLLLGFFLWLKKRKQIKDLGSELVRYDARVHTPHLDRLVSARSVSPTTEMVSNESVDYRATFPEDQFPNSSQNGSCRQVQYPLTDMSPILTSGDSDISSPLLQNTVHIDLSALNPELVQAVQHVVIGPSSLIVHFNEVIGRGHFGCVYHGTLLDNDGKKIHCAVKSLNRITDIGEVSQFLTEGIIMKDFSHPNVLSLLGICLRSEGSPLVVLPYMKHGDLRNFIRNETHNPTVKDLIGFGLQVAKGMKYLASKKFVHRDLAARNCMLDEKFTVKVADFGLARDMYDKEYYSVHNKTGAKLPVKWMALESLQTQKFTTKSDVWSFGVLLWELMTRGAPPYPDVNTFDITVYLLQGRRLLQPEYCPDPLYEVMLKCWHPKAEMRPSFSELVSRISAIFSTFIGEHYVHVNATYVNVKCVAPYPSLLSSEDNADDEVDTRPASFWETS

LEC proliferation, minimal effective concentration: 1 ng/mL
Substance: hepatocyte growth factor (HGF) (ligand)
